Reference: the supplement of paper PMC9112550, “Optimization of the antimicrobial peptide Bac7 by deep mutational scanning” (BMC Biology, 2022)

system: Escherichia coli TOP10; experiment: shrunken log2 fold change of peptide-encoding DNA abundance (4.5 h post-induction vs induction); higher = less antimicrobial activity (less host growth inhibition); settings: time post-induction: 4.5 h; library: site-saturation at positions 5, 18, 19, 20
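Also: peptides expressed intracellularly from a pBAD plasmid library in pooled LB shake-flask culture, induced with 0.3% L-arabinose, DNA abundance read by NGS, three biological replicates, DESeq2 with apeglm shrinkage.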

Row | Sequence | shrunken log2 fold change
1 | RRIRNRPPRLPRPRPRPNYFPRP | 0.169
2 | RRIRHRPPRLPRPRPRPPLLPRP | 0.152
3 | RRIRWRPPRLPRPRPRPHMMPRP | -0.349
4 | RRIRHRPPRLPRPRPRPYTAPRP | -0.735
5 | RRIRYRPPRLPRPRPRPEHAPRP | 0.0635
6 | RRIRPRPPRLPRPRPRPPFHPRP | 0.011
7 | RRIRGRPPRLPRPRPRPCSRPRP | 0.0838
8 | RRIRCRPPRLPRPRPRPIGSPRP | -0.139
9 | RRIRPRPPRLPRPRPRPQETPRP | 0.134
10 | RRIRGRPPRLPRPRPRPFMVPRP | -0.131
11 | RRIRYRPPRLPRPRPRPEGLPRP | -0.0136
12 | RRIRRRPPRLPRPRPRPDMGPRP | 0.00408
13 | RRIRGRPPRLPRPRPRPTVCPRP | 0.798
14 | RRIRMRPPRLPRPRPRPEYMPRP | -0.00213
15 | RRIRMRPPRLPRPRPRPMSVPRP | -0.00306
16 | RRIRSRPPRLPRPRPRPKMAPRP | -0.13
17 | RRIRRRPPRLPRPRPRPTWHPRP | 0.429
18 | RRIRSRPPRLPRPRPRPMHHPRP | -0.0364
19 | RRIRFRPPRLPRPRPRPPEQPRP | -0.0209
20 | RRIRERPPRLPRPRPRPNEQPRP | -0.215
21 | RRIRMRPPRLPRPRPRPGEKPRP | 0.00581
22 | RRIRVRPPRLPRPRPRPEDCPRP | -0.0557
23 | RRIRQRPPRLPRPRPRPYITPRP | -0.0324
24 | RRIRSRPPRLPRPRPRPRTKPRP | 0.407
25 | RRIRNRPPRLPRPRPRPLMDPRP | 0.0545

Row | Sequence | shrunken log2 fold change
26 | RRIRIRPPRLPRPRPRPKMAPRP | -0.179
27 | RRIRERPPRLPRPRPRPYKVPRP | -0.0366
28 | RRIRHRPPRLPRPRPRPPAMPRP | 0.0064
29 | RRIRYRPPRLPRPRPRPFQFPRP | 0.015
30 | RRIRERPPRLPRPRPRPHWIPRP | -0.117
31 | RRIRHRPPRLPRPRPRPDKKPRP | -0.0244
32 | RRIRQRPPRLPRPRPRPAVCPRP | -0.197
33 | RRIRHRPPRLPRPRPRPLFMPRP | -0.492
34 | RRIRWRPPRLPRPRPRPIYIPRP | -0.889
35 | RRIRNRPPRLPRPRPRPIAGPRP | -0.0235
36 | RRIRYRPPRLPRPRPRPEKSPRP | -0.0559
37 | RRIRRRPPRLPRPRPRPNIPPRP | -0.24
38 | RRIRARPPRLPRPRPRPSCWPRP | 0.628
39 | RRIRERPPRLPRPRPRPYICPRP | -0.486
40 | RRIRARPPRLPRPRPRPNFMPRP | 0.186
41 | RRIRHRPPRLPRPRPRPLMMPRP | -0.124
42 | RRIRWRPPRLPRPRPRPVDSPRP | 0.183
43 | RRIRRRPPRLPRPRPRPMKQPRP | 0.134
44 | RRIRERPPRLPRPRPRPNWWPRP | 0.196
45 | RRIRWRPPRLPRPRPRPIMYPRP | -0.0994
46 | RRIRLRPPRLPRPRPRPSDVPRP | -0.533
47 | RRIRFRPPRLPRPRPRPDWDPRP | 0.124
48 | RRIRIRPPRLPRPRPRPLHWPRP | -0.138
49 | RRIRIRPPRLPRPRPRPAHPPRP | 0.239
50 | RRIRRRPPRLPRPRPRPRMKPRP | 0.309

Row | Sequence | shrunken log2 fold change
51 | RRIRHRPPRLPRPRPRPLCAPRP | -0.0531
52 | RRIRPRPPRLPRPRPRPRQNPRP | 0.463
53 | RRIRCRPPRLPRPRPRPTTMPRP | 0.722
54 | RRIRSRPPRLPRPRPRPGISPRP | -0.486
55 | RRIRQRPPRLPRPRPRPSMFPRP | -0.667
56 | RRIRFRPPRLPRPRPRPVSWPRP | 0.44
57 | RRIRKRPPRLPRPRPRPATQPRP | 0.958
58 | RRIRYRPPRLPRPRPRPIGEPRP | -0.135
59 | RRIRVRPPRLPRPRPRPHDQPRP | 0.134
60 | RRIRIRPPRLPRPRPRPHRGPRP | -0.00841
61 | RRIRWRPPRLPRPRPRPHCCPRP | -0.124
62 | RRIRCRPPRLPRPRPRPKGIPRP | 0.0519
63 | RRIRGRPPRLPRPRPRPAQQPRP | 0.57
64 | RRIRNRPPRLPRPRPRPRRGPRP | 0.78
65 | RRIRFRPPRLPRPRPRPDPCPRP | -0.191
66 | RRIRDRPPRLPRPRPRPEWPPRP | 0.209
67 | RRIRWRPPRLPRPRPRPPDMPRP | 0.0014
68 | RRIRVRPPRLPRPRPRPKVCPRP | -0.0503
69 | RRIRWRPPRLPRPRPRPNKNPRP | -0.0787
70 | RRIRYRPPRLPRPRPRPEHQPRP | -0.464
71 | RRIRYRPPRLPRPRPRPHFYPRP | -0.662
72 | RRIRKRPPRLPRPRPRPHSIPRP | 0.124
73 | RRIRRRPPRLPRPRPRPVANPRP | 0.207
74 | RRIRSRPPRLPRPRPRPKGEPRP | 0.379
75 | RRIRRRPPRLPRPRPRPHASPRP | 0.201

Row | Sequence | shrunken log2 fold change
76 | RRIRNRPPRLPRPRPRPDKNPRP | -0.226
77 | RRIRKRPPRLPRPRPRPGSAPRP | 0.843
78 | RRIRGRPPRLPRPRPRPYICPRP | -0.423
79 | RRIRCRPPRLPRPRPRPSSGPRP | -0.011
80 | RRIRCRPPRLPRPRPRPNRCPRP | 0.053
81 | RRIRTRPPRLPRPRPRPYPDPRP | -0.0217
82 | RRIRTRPPRLPRPRPRPLPTPRP | 0.368
83 | RRIRWRPPRLPRPRPRPRKEPRP | 0.0466
84 | RRIRSRPPRLPRPRPRPVPGPRP | 0.137
85 | RRIRTRPPRLPRPRPRPFAVPRP | -0.0779
86 | RRIRWRPPRLPRPRPRPNDDPRP | 0.0584
87 | RRIRCRPPRLPRPRPRPGPNPRP | 0.296
88 | RRIRYRPPRLPRPRPRPAKWPRP | 0.0339
89 | RRIRSRPPRLPRPRPRPIISPRP | -0.472
90 | RRIRQRPPRLPRPRPRPFMAPRP | -0.61
91 | RRIRPRPPRLPRPRPRPWRNPRP | 0.0809
92 | RRIRHRPPRLPRPRPRPQYLPRP | 0.00943
93 | RRIRRRPPRLPRPRPRPALRPRP | 0.648
94 | RRIRSRPPRLPRPRPRPWHPPRP | -0.125
95 | RRIRMRPPRLPRPRPRPIQFPRP | -0.318
96 | RRIRERPPRLPRPRPRPQVCPRP | -0.245
97 | RRIRMRPPRLPRPRPRPANEPRP | 0.182
98 | RRIRRRPPRLPRPRPRPMKTPRP | 0.0796
99 | RRIRNRPPRLPRPRPRPWWAPRP | -0.0446
100 | RRIRLRPPRLPRPRPRPDNFPRP | 0.0569

Row | Sequence | shrunken log2 fold change
101 | RRIRDRPPRLPRPRPRPDASPRP | -0.012
102 | RRIRKRPPRLPRPRPRPVGHPRP | 0.224
103 | RRIRIRPPRLPRPRPRPYNAPRP | -0.734
104 | RRIRNRPPRLPRPRPRPLCYPRP | -0.781
105 | RRIRQRPPRLPRPRPRPWPRPRP | 0.014
106 | RRIRFRPPRLPRPRPRPQVKPRP | -0.279
107 | RRIRRRPPRLPRPRPRPWVWPRP | 0.00495
108 | RRIRNRPPRLPRPRPRPFSLPRP | -0.0274
109 | RRIRARPPRLPRPRPRPKLWPRP | 1
110 | RRIRWRPPRLPRPRPRPARCPRP | 0.209
111 | RRIRIRPPRLPRPRPRPDEIPRP | 0.1
112 | RRIRWRPPRLPRPRPRPKNHPRP | -0.248
113 | RRIRTRPPRLPRPRPRPPWFPRP | 0.0438
114 | RRIRARPPRLPRPRPRPAIHPRP | -0.223
115 | RRIRCRPPRLPRPRPRPWNWPRP | -0.0303
116 | RRIRCRPPRLPRPRPRPGSDPRP | -0.0369
117 | RRIRTRPPRLPRPRPRPMSNPRP | -0.535
118 | RRIRMRPPRLPRPRPRPALIPRP | 0.136
119 | RRIRMRPPRLPRPRPRPKFNPRP | -0.111
120 | RRIRARPPRLPRPRPRPCGYPRP | 0.0562
121 | RRIRQRPPRLPRPRPRPKVVPRP | -0.0141
122 | RRIRVRPPRLPRPRPRPGRTPRP | 0.117
123 | RRIRDRPPRLPRPRPRPYATPRP | 0.0348
124 | RRIRGRPPRLPRPRPRPGEAPRP | 1.48
125 | RRIRMRPPRLPRPRPRPGESPRP | 1.29
